The source of these data is patent publication US20090221680, “Aptamers that bind thrombin with high affinity” (published 2009).

In the first data set the target is T1, thrombin (endogenous, clotting assay in plasma or whole blood) (Homo sapiens, UniProt P00734;P00734 P00734:328-363,P00734:364-622). The data set can be described thus: inhibition; PT at 10 uM.
With ATCCCAATGTTGAGACGAGTAGGTGTGGGTAGGGTGGCTGAGGATCGATC (ssDNA) [AMX(453)_A9], the activity was 29.3 s.
Molecule CCCGACTGATTCTTACCTTAGGGATGGTGTGGGTGGCTGAGGATCGATC (ssDNA) [AMX(454)_B9] returned an activity of 32 s.
On to TCCCTGCATCGAGCCTCTATGGGATGGTTTGGGTGGCTGAGGATCGATC (ssDNA) [AMX(454)_F9], for which the activity came out at 25 s.
As for TCCCTGGTTTCGATCTGTTTTGGTTGGTCTGGGTGGCTGAGGATCGATC (ssDNA) [AMX(454)_B12], the activity is 21.9 s.
The molecule TCCTGATTGATCTGAGGGGTATTGTTGGCGTGGGTGGCTGAGGATCGATC (ssDNA) [AMX(453)_C10] returned an activity of 104 s.
Still for that read-out and setting: to TCCCATCGATCTGGGGTAGTTTTATTGGGTCGGGTGGCTGAGGATCGATC (ssDNA) [AMX(453)_B10] belongs 24.8 s.
For the molecule TCCCATCGATCTGGGGTAGTTTTATTGGGTTGGGTGGCTGAGGATCGATC (ssDNA) [AMX(454)_H3], the activity was 35.4 s.
Molecule TCCCTGCTTGTCGATATTTTAGGGTTGGTGTGGGTGGCTGAGGATCGATC (ssDNA) [AMX(454)_D11] had an activity of 43.4 s.
TCCCGAGCGATACTGTCTAGGTTGGGTAGGGTGGTGGCTGAGGATCGATC (ssDNA) [AMX(453)_F7] came in with an activity of 28.6 s.
In turn, TCCCGAGCGATATTGTCTAGGTTGGGTAGGGTGGTGGCTGAGGATCGATC (ssDNA) [AMX(453)_F11] displayed an activity of 65.8 s.
Molecule TCCCATGATCGTTAGATTCAGGGATGGTGTGGGTGGCTGAGGATCGATC (ssDNA) [AMX(453)_G5] came in with an activity of 29.3 s.

In another data set the target is thrombin (alpha-thrombin) (Homo sapiens, UniProt P00734;P00734 P00734:315-363,P00734:364-622). The data set can be described thus: filter; 10 nM thrombin.
TCCCACGGTCCTCACCTAGGATGGTTAGGGTGGTGGCTGAGGATCGATC (ssDNA) [AMX(395)_G2] returned a binding signal of 33.1 % bound.
The same measure, in the same setting: to TCCCGGTCGAGTCCTCACGAAGGGTTGGGAGGGTGGCTGAGGATCGATC (ssDNA) [AMX(395)_E7] belongs 9.12 % bound.
Same read-out and setting: the value for TCCCGAGTGTCATATCATCAGAGGTTGGAGTGGGTGGCTGAGGATCGATC (ssDNA) [AMX(395)_D5] was 13.4 % bound; that for TCCCATAGTATCGAGCCGATTGGATGGTCTGGGTGGCTGAGGATCGATC (ssDNA) [AMX(395)_F3] was 6.29 % bound.
TCCTATCGATACGGGGTCTTCTATTGGGTCGGGGTGGCTGAGGATCGATC (ssDNA) [AMX(395)_E2] displayed a binding signal of 6.51 % bound.
Regarding TCCCGGTCGTATTAGTGTGGGTGGTGTAGGGTGGTGGCTGAGGATCGATC (ssDNA) [AMX(395)_E11], the binding signal was determined as 33.7 % bound.
In turn, TCCCGGTAGCGATCCAGAGAGGGATGGGGTGGGTGGCTGAGGATCGATC (ssDNA) [AMX(395)_H9] registered a binding signal of 9.61 % bound.
The same measure, in the same setting: to TCCCGCAATCGGTACTCAGGAGGATGGTTGGGGTGGCTGAGGATCGATC (ssDNA) [AMX(395)_B5] belongs 17.1 % bound; to TCCCAGAGCGGAAATCCTCAGGGGTGGGGTGGGTGGCTGAGGATCGATC (ssDNA) [AMX(395)_G11], 21.9 % bound.
Same read-out and setting: the value for TCCCGACTTCGATTACTCAGGGGTGGCTGTGGGTGGCTGAGGATCGATC (ssDNA) [AMX(395)_E4] was 24 % bound; that for TCCCATGATCGTCAGATTCAGGGATGGTGTGGGTGGCTGAGGATCGATC (ssDNA) [AMX(395)_E8] was 21.3 % bound.

A further data set concerns the target T1, thrombin (endogenous, clotting assay in …). Description: inhibition; ACT at 10 uM aptamer.
For the molecule TTTTTTCCTCAGGGATGGTGTGGGTGGCTGAGG (ssDNA) [ARC2188], the activity turned out to be 426 s.
The same measure, in the same setting: to TTTCTGCCTAGGTTGGGTAGGGTGGTGGCAGTTT (ssDNA) [ARC2195] belongs 438 s; to CTGCCTAGGTTGGGTAGGGTGGTGGCAGTTT (ssDNA) [ARC2191], 453 s; to TTTCTGCCTAGGTTGGGTAGGGTGGTGGCAG (ssDNA) [ARC2193], 545 s.
TTTTTTCTGCCTAGGTTGGGTAGGGTGGTGGCAGTTTTTT (ssDNA) [ARC2196] yielded an activity of 441 s.
The same measure, in the same setting: to TTTCCTCAGGGATGGTGTGGGTGGCTGAGGTTT (ssDNA) [ARC2189] belongs 410 s; to TTTTTTCCTCAGGGATGGTGTGGGTGGCTGAGGTTTTTT (ssDNA) [ARC2190], 389 s; to TTTTTTCTGCCTAGGTTGGGTAGGGTGGTGGCAG (ssDNA) [ARC2194], 462 s.
Molecule CTGCCTAGGTTGGGTAGGGTGGTGGCAGTTTTTT (ssDNA) [ARC2192] showed an activity of 423 s.

The target is the same in the next data set. The data set can be described thus: inhibition; PT at 10 uM. The source holds these as a separate data set.
On to ACTGCCTAGGGTGGGTAGGGTGGTGGCAGT (ssDNA) [ARC2169.2], for which the activity stood at 300 s.
ACTGCCTAGGTTGGGTAGGATGGTGGCAGT (ssDNA) [ARC2169.4] displayed an activity of 53.8 s.
Still for that read-out and setting: to ACTGCATAGGTTGGGTAGGGTGGTGCAGT (ssDNA) [ARC2169.8] belongs 28.7 s; to ACTGCATAGGTTGGGTAGGGTGGTGGCAGT (ssDNA) [ARC2169.7], 300 s.
Turning to ACTGCATAGGTTGGGTAGGGTGGTTGCAGT (ssDNA) [ARC2169.6], the activity was 300 s.
The molecule ACTGCCTAGGATGGGTAGGGTGGTGGCAGT (ssDNA) [ARC2169.1] yielded an activity of 300 s.
